Data as given in US20230355720A1, “PHARMACEUTICAL COMPOSITION FOR PREVENTING OR TREATING BONE DISEASES, COMPRISING TRIPLE AGONIST OR CONJUGATE THEREOF HAVING ACTIVITY WITH RESPECT TO ALL OF GLUCAGON, GLP-1 AND GLP RECEPTORS” (HANMI PHARM. CO., LTD., priority 2020, published 2023).
Bridge positions count the residues as written; N and C are the ends. Square brackets hold non-standard residues; d marks the D form. Ends that are not written are not given here. * marks the point of attachment. Acetyl(2-(4-imidazolyl)) = O=C(Cc1c[nH]cn1)*; Aib = CC(C)(N)C(=O)O

T1: human GIP receptor (human, UniProt P48546 22-466)
T1 sequence (looked up): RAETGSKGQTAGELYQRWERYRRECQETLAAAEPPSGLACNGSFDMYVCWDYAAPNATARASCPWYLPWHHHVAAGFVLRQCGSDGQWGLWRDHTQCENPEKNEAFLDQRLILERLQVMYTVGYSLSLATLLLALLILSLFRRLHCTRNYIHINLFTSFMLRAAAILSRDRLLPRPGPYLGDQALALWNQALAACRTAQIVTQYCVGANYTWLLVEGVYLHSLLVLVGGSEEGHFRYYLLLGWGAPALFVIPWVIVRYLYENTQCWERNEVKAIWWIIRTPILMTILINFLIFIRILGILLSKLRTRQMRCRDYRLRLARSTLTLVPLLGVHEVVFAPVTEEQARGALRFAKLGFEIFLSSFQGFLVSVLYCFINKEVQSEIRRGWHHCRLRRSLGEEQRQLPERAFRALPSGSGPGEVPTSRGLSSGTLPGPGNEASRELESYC

B1: triple agonist of SEQ ID NO: 67 (peptide)
peptide: Y[Aib]QGTFTSDYSKYLDECAAKDFVQWLLDHHPSSGQPPPS
modifications: bridge 16-20
B2: triple agonist of SEQ ID NO: 71 (peptide)
peptide: Y[Aib]QGTFTSDYSKYLDERACKDFVQWLLDHHPSSGQPPPS
modifications: bridge 16-20
B3: triple agonist of SEQ ID NO: 65 (peptide)
peptide: H[Aib]QGTFTSDYSKCLDEKRAKEFVQWLLDHHPSSGQPPPS
modifications: bridge 16-20
B4: triple agonist of SEQ ID NO: 68 (peptide)
peptide: Y[Aib]QGTFTSDYSKCLDEKAAKEFVQWLLDHHPSSGQPPPS
modifications: bridge 16-20
B5: triple agonist of SEQ ID NO: 8 (peptide)
peptide: H[Aib]QGTFTSDVSKYLDGQAAQEFVAWLLKGC
B6: triple agonist of SEQ ID NO: 79 (peptide)
peptide: H[Aib]EGTFTSDYSIAMDEIHQKDFVNWLLAQKC
modifications: bridge 16-20; not fully specified
B7: triple agonist of SEQ ID NO: 75 (peptide)
peptide: Y[Aib]QGTFTSDYSKYLDEKAAKEFVQWLLDHHPSSGQPPPSC
modifications: bridge 16-20
B8: triple agonist of SEQ ID NO: 66 (peptide)
peptide: Y[Aib]QGTFTSDYSKYLDECRAKDFVQWLLDHHPSSGQPPPS
modifications: bridge 16-20
B9: triple agonist of SEQ ID NO: 9 (peptide)
peptide: H[Aib]QGTFTSDVSKYLDGQAAQEFVAWLLAGC
B10: triple agonist of SEQ ID NO: 70 (peptide)
peptide: Y[Aib]QGTFTSDYSKCLDEKRAKDFVQWLLDHHPSSGQPPPS
modifications: bridge 16-20
B11: triple agonist of SEQ ID NO: 85 (peptide)
peptide: [Acetyl(2-(4-imidazolyl))][Aib]QGTFTSDYSIAMDEIHQKDFVNWLLAQC
modifications: bridge 16-20; not fully specified
B12: triple agonist of SEQ ID NO: 82 (peptide)
peptide: {Acetyl(2-(4-imidazolyl))}-[Aib]QGTFTSDYSKYLDEKRQKEFVQWLLDTC
modifications: bridge 15-19; numbers in words are those of the source; also: ring between positions 16 and 20, type not given here
B13: triple agonist of SEQ ID NO: 72 (peptide)
peptide: Y[Aib]QGTFTSDCSKYLDERAAKDFVQWLLDHHPSSGQPPPS
modifications: bridge 16-20

target: human GCG receptor (human, UniProt P47871 26-477); experiment: cell-based or functional assay
Sequence (P47871 26-477): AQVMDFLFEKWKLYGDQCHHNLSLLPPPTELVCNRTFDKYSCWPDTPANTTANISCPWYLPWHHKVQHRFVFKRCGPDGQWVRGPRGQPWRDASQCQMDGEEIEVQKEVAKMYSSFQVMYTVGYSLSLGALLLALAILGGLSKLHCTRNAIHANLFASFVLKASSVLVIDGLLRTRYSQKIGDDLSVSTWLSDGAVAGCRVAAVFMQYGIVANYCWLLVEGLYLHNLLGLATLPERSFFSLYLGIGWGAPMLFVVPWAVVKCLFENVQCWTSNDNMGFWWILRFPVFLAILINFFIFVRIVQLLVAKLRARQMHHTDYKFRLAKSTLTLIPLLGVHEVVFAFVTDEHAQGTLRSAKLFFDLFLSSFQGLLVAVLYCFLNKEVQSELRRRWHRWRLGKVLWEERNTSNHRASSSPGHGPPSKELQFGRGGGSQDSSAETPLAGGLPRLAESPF

| Binder | In vitro activity (%) compared with native peptide, vs Glucagon |
| --- | --- |
| B1 | 46.2% |
| B2 | 12.7% |
| B3 | 25.2% |
| B4 | 8.8% |
| B5 | 0.1% |
| B6 | 4.9% |
| B7 | 8.5% |
| B8 | 172% |
| B9 | 0.13% |
| B10 | 71.3% |
| B11 | < 0.1% |
| B12 | 1.1% |
| B13 | 1% |

target: human GLP-1 receptor (human, UniProt P43220 24-463); experiment: cell-based or functional assay

| Binder | In vitro activity (%) compared with native peptide, vs GLP-1 |
| --- | --- |
| B1 | 28.5% |
| B2 | 90.1% |
| B3 | 95.4% |
| B4 | 27.9% |
| B5 | 14.2% |
| B6 | 41.5% |
| B7 | 35.1% |
| B8 | 15.8% |
| B9 | 32.1% |
| B10 | 15.1% |
| B11 | 4.3% |
| B12 | 9.5% |
| B13 | 11.5% |

target: T1, human GIP receptor; experiment: cell-based or functional assay

| Binder | In vitro activity (%) compared with native peptide, vs GIP |
| --- | --- |
| B1 | 39.8% |
| B2 | 94.7% |
| B3 | 11.6% |
| B4 | 107% |
| B5 | < 0.1% |
| B6 | 1.4% |
| B7 | 18% |
| B8 | 17.2% |
| B9 | < 0.1% |
| B10 | 64.4% |
| B11 | 0.3% |
| B12 | < 0.1% |
| B13 | 1.6% |
